# Measurements taken from article PMC7658645, “Aptamer-Based Western Blot for Selective Protein Recognition”.
# B1: G1 (ssDNA)
# DNA: ATACGACTCACTATTAGGGACAAAGCTGACAACCCTTTCATAATCTAACTACATTTATGTGCTAGACTACTGACTAC
# Tests used:
# Maltose-binding protein = Maltose-binding protein (Escherichia coli (strain K12), UniProt P0AEX9 27-396); assay: Western blot, SDS-denatured protein on nitrocellulose; settings: label: 5'-Cy5.5
# histone H4 = histone H4 (UniProt P62805 2-103); assay: aptamer blot; on nitrocellulose; all four histone types labeled without selectivity; Dot blot/aptamer blot: 20 mM Tris-HCl, 100 mM NaCl, 5 mM MgCl2, 0.1% BSA (pH not given), 50 nM aptamer in dot blot (membranes equilibrated at 4 C), blots 1 h af
Binder,binding result (Maltose-binding protein),binding result (histone H4)
B1,no binding,
GAGTGTGGTTCCCGGGAGGGCGCCTACGGGTCCCGTATTCGGATTTGTGC (ssDNA) [3.13],,binds
